As usually defined, the Kd is the constant that tells how readily two partners part at equilibrium.

For data set [1], the target named is T1, ZFRlong;ILF2 (29-390) (human;human?, UniProt Q96KR1;Q12905 317-1074;29-390, |). Briefly: EMSA; 4 mM Mg2+; EMSA: 20 mM HEPES pH 7.5, 150 mM K acetate, 4 mM Mg acetate, 1 mM DTT, 0.5 uM nucleic acid, 1 h on ice; 8% native PAGE in 0.5x TBE at 4 C. The note with it: protein: recombinant;recombinant, tags: N-terminal His6;N-terminal His6, copies: 1;1, blunt.
Data set [2] addresses T1, ZFRlong;ILF2 (29-390). Description: EMSA; 4 mM Mg2+; affinity similar to 24-mer dsRNA; EMSA: 20 mM HEPES pH 7.5, 150 mM K acetate, 4 mM Mg acetate, 1 mM DTT, 0.5 uM nucleic acid, 1 h on ice; 8% native PAGE in 0.5x TBE at 4 C. Particulars: protein: recombinant;recombinant, tags: N-terminal His6;N-terminal His6, copies: 1;1, label: Cy5 on RNA strand (5' per Methods), RNA:DNA duplex. In general terms: A gel shift assay detects complexes by their altered migration in electrophoresis.

[3] abbreviates: label: Cy5 on strand 1 (5' per Methods).
[4] abbreviates: label: DY681 on strand 1 (5' per Methods).

T1 sequence (Q96KR1 317-1074, chain 1 of 2): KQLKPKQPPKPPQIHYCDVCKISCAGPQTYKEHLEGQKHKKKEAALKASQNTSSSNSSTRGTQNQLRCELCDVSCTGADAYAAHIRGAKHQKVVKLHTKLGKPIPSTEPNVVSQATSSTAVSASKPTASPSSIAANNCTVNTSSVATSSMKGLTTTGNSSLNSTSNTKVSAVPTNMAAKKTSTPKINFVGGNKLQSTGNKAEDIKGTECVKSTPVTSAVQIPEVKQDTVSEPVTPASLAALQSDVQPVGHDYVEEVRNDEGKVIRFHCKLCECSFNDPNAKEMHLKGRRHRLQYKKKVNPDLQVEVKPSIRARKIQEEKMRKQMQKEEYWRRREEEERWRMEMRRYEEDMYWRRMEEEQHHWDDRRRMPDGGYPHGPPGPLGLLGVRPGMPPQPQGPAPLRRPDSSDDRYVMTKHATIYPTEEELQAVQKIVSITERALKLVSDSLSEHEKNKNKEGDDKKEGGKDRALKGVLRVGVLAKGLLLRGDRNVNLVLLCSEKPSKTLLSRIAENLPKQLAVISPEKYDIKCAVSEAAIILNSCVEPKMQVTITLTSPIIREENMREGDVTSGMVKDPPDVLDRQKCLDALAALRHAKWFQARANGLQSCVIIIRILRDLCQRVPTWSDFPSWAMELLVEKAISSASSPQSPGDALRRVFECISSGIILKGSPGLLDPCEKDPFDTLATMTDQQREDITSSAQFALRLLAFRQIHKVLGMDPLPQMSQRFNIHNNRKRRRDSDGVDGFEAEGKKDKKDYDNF
T1 sequence (Q12905 29-390, chain 2 of 2): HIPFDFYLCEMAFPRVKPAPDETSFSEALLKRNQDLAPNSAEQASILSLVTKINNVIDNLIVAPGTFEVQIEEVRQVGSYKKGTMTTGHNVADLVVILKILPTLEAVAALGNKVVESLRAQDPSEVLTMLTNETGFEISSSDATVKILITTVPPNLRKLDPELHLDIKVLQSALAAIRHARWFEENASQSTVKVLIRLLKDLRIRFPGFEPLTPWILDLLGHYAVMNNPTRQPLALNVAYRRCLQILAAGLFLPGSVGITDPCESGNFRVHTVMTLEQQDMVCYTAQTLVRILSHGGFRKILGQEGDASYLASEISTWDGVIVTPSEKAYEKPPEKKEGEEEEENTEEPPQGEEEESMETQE

B1: C-rich (GC-rich) 24-mer dsRNA, Zfr-RBNS1 (dsRNA)
RNA 1: AAUGACACCCAAAAUGACACCCAA
RNA 2: UUGGGUGUCAUUUUGGGUGUCAUU
In the case of B1, the Kd in data set [1] (setting [3]) was about 300 nM.

B2: U-rich (AU-rich) 24-mer dsRNA, Zfr-RBNS3 (dsRNA)
RNA 1: AAUGUUGUAAAAAAUGUUGUAAAA
RNA 2: UUUUACAACAUUUUUUACAACAUU
For the molecule B2, the Kd in data set [1] (setting [3]) is about 300 nM.

B3: U-rich 24-mer RNA : A-rich DNA hybrid, Zfr-RBNS3 (DNA:RNA)
RNA: AAUGUUGUAAAAAAUGUUGUAAAA
DNA: TTTTACAACATTTTTACAACATT
Consider B3, for which the binding result in data set [2] (printed DNA 1 nt short) is recorded as “binds”.

B4: C-rich (GC-rich) 12-mer dsRNA, Zfr-RBNS1 (dsRNA)
RNA 1: AAUGACACCCAA
RNA 2: UUGGGUGUCAUU
Regarding B4, the Kd in data set [1] (setting [4]) was about 800 nM.

B5: U-rich (AU-rich) 12-mer dsRNA, Zfr-RBNS3 (dsRNA)
RNA 1: AAUGUUGUAAAA
RNA 2: UUUUACAACAUU
Consider B5, for which, in data set [1] (setting [4]), the Kd is about 800 nM.

B6: C-rich 24-mer RNA : G-rich DNA hybrid, Zfr-RBNS1 (DNA:RNA)
RNA: AAUGACACCCAAAAUGACACCCAA
DNA: TTGGGTGTCATGGGTGTCAT
For B6, the binding result in data set [2] (printed DNA 4 nt short) is on record as “binds”.

The values are drawn from paper doi:10.1101/2022.06.15.495552, “A network of DZF proteins controls alternative splicing regulation and fidelity”.
